Data reported in the nanobody polyreactivity screen of Harvey et al. (2022).

Assay: yeast display, Sf9 membrane polyspecificity reagent, FACS + sequencing; frameworks hold sequencing errors
Procedure, shortened: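 In a synthetic yeast display library (Saccharomyces cerevisiae BJ5465), nanobody expression was induced with galactose for 36–48 hours. FACS gates were set low and high (top ~1%) using anti-HA fluorescence for expression and streptavidin fluorescence for binding of the Sf9 membrane reagent. Each polyreactivity label is drawn from the gate of origin.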

| Sequence | polyreactivity (PSR sort gate) |
| --- | --- |
| QVQLVESGGGIVQAGGSLRISCAASGYTFKWYDMGWYRQAPGKEWELVASISWRGGSTYYADSVKGRYTISRDNAKNTVYFQMNSLKPEDTAVYYCAASLWPDYEYDYWGQGTQVTVSS | low polyreactivity |
| QVQLVESGGGIVQAGGSLRISFAASGFTFLGNAMGWYRQEPGKERELVARISTRGGTTYYADSVKGRFTISRDNAKYTVYFQMNRLKPEDTAVYYCAKKYYLYSPYRTGYDYWGQGTQVTVSS | high polyreactivity |
| QVQLVESGGGIVQAGGSLRLICAASGLILYGYTMGWYRQAPGKDRQLVAAISRGGGGTYYADSVKGRFTISRDNVKNTVYLQINSLKPEDTAVYYCAAYVYSLGGEYFYWGQGTLVTVSS | high polyreactivity |
| QVQLVESGGGIVQAGGSLRLRCAASGSIISVYAMGWYRQAPGKERELLDGITISGGRTYYADSVKGRFTISRDYAKNTVYLQMNSMKPEDTAVYYCAADWVYPPGLNDSVHFGEYDYWGQGSQVTVSS | low polyreactivity |
| QVQLVESGGGIVQAGGSLRLRCAASVRIFPCNTMGWYRQAPGKERELVAGINNGDRTYYADSVKGRFTISRDYAKNTVYLQMNILKPEDTAVYYCAADYVYFYFYGYDSWGQRTQVTVSS | low polyreactivity |
| QVQLVESGGGIVQAGGSLRLSCAASGFIFKKYVMGWYRQAPGKERELVAGISRSGGSTYYADSVKGRFTISRENAKITVYFQMNSLKPEDTAVYYGAAYIYQSPTRGGGYWGQGTQVTVSS | high polyreactivity |
| QVQLVESGGGIVQAGGSLRLSCAASGFIFSNYAMGWYRQAPGKERELVAAISSGGTITKYADSVKGRFTISRDNAKNTVYLQMNSLKTEDTAVYYCNAVVRVRFRKNDYWGQGTQVTVSS | high polyreactivity |
| QVQLVESGGGIVQAGGSLRLSCAASGFTFAVNAMGWYRQAPGKERELVAGISRRGGNTYYADSVKGRFTISRDNAKNTVYLQMNSLKPEDTAVYYCARYSYSYWGQGTQVTVSS | high polyreactivity |
| QVQLVESGGGIVQAGGSLRLSCAASGFTFDYNTMGWYRQAPGKERELVAAISWSGGSTYYADSVKGRFTISRDNAKNTVYLQMNSLKPEDTAVYYCAAAWSYRYELYYCGQGTQVTVSS | low polyreactivity |
| QVQLVESGGGIVQAGGSLRLSCAASGFTFTRYAMGSYRQAPGKERELVATITKRGGSTYYADSVKGRFTISRDNAKNTVYLKMNSLKPEDTAVYYCAADGASRALYDYWGQGTQVTVSS | high polyreactivity |
| QVQLVESGGGIVQAGGSLRLSCAASGFTFVNNAIGWYRQAPGKERELVASITRRGGRTYYADSVKGRFTISRDNAKNTVYLQMNSLKPEDTAVYYCAVQGYGWGPLGYAEYDYWGQGTQVTVSS | high polyreactivity |
| QVQLVESGGGIVQAGGSLRLSCAASGFTIPRYAMGWYRQAPGKERELVAAITVGGGRTYYADSVKGRFTISRDNAKNTVYLQMNSLKPEDTAVYYCAADSHASTYDYWGQGTQVTVSS | low polyreactivity |
| QVQLVESGGGIVQAGGSLRLSCAASGIIFKYYAMGWYRQAPGKERELVAAISRIGGSTHYADSVKGRFTISRDNAKYTVYLQMNSLKPEDTAVSYCAARVLGRPLYFIYDYWGQGTQVTVSS | high polyreactivity |
| QVQLVESGGGIVQAGGSLRLSCAASGIIFRYYAMGWYRQAPGNERELVAVITGRGGGTYYADSVKGRFTISRDNAKNTVYLQMNSLKPEDTAVYYCAKDFTGHYPKGFDYWGQGTQLTVSS | low polyreactivity |
| QVQLVESGGGIVQAGGSLRLSCAASGIIFWDNAMGWYRQAPGKERELVASINYSGGSTYYADSVKGRFTISRDNAKNTVYLQMNSLKPEDTAVYYCAARTVTLDDWDYAYDYWGQGTQVTVSS | low polyreactivity |
| QVQLVESGGGIVQAGGSLRLSCAASGITFGRYVMGWYRQAPGKERELVAAISRSGGSTYYADSVKGRFTISRDNAKNTVYLQMNSLKPEDTAVYYCAADLRQTGYGWYDYWGQGTQVTVSS | high polyreactivity |
| QVQLVESGGGIVQAGGSLRLSCAASGLIFRRYTMGWYRQAPGKERELVAAIRNSGSSTDYADSVKGRFTISRDNAKNTVYLQMNSLKPEDTAVYYCAKRSARKLTYDSWGQGTQVTVSS | low polyreactivity |
| QVQLVESGGGIVQAGGSLRLSCAASGLILYWYAMGLYRQAPGKERYLVAAISISGGSTYYADSVKGRFTISRDNAKNTVYLQMNSLKPEDTAVYYCAAVYFYSWEGDGDYWGQGTQVTVSS | low polyreactivity |
| QVQLVESGGGIVQAGGSLRLSCAASGLTFSIYPIGWYRQAPGKERELVAAISWSGGSTYYADSVKGRFTISRDNAKNTVYLQMNSLKPEDTAVYYCAARVYRPWWSYDYWGQGTQVTVSS | high polyreactivity |
| QVQLVESGGGIVQAGGSLRLSCAASGLTICDYAMGWYRQAPGKERELVAAISSSGGRTYYADSVKGRFTISRDNAKNTVYLQMNSLKPEDTAVYYCAAQSKYYQYYSWGQGTQVTVSS | high polyreactivity |
| QVQLVESGGGIVQAGGSLRLSCAASGNNIGGNAMGWYRQAPGKERELVAAISNSGVRTYYADSVKGRFTISRDNAKNSVDLQMNSLKPEDTAVYYCYVLGNYYGKFDYWGQGTQVTVSS | high polyreactivity |
| QVQLVESGGGIVQAGGSLRLSCAASGRIFDGYAMGWYRQAPGKESQLVAAISATGGSTYYADSVKGRFTISRDNAKNTVYLQMNSLKPEDTAVYYCATDYVRGLYRYKLSRYEYWGQGTQETVSS | low polyreactivity |

| Sequence | polyreactivity (PSR sort gate) |
| --- | --- |
| QVQLVESGGGIVQAGGSLRLSCAASGRIFGYYAMGWYRQAPGKERELVARISSSGGSTYYADSVKGRFTISRDNAKNTVYVQMNSLKPEDTAVDYCNTASNRYPGWRAEFDYWGQGTQVTVSS | low polyreactivity |
| QVQLVESGGGIVQAGGSLRLSCAASGRIFNRYAMGWYRQAPGKKWELVATISVSGANTYYADSVKGRFTISRDNAKNTVYLQMNSLKPEDTAVYSCNVKRGTIGGYYYWGQVTQVTVSS | high polyreactivity |
| QVQLVESGGGIVQAGGSLRLSCAASGRIFSEYAMGWYRQAPGKERELVARITSSGGSTSYADSVKGRFTISRDNAKNTVYLQMNSLNPVDTAVYYCAGDGVWRRFYYLHYYWGQGTQVTVSS | high polyreactivity |
| QVQLVESGGGIVQAGGSLRLSCAASGRIFSPNAMGWYRQAPGKERELVASISSAGSTNYADSVKGRFTISRDNAKNTVDLLMKSLIPEDTAVYYCDADQPYYGYWDWYSHEYDYWGQGTQVSVSS | low polyreactivity |
| QVQLVESGGGIVQAGGSLRLSCAASGRIFSVYAKGWTRQAPGKERELVAAISSGGTTYYADSVKGRFTNSRDNAKNTVYLLMNSQKPDDTAVYYFAASVYYYRYNYWGQGTQVTVSS | low polyreactivity |
| QVQLVESGGGIVQAGGSLRLSCAASGRIFTRYVMGWYRQAPGKERELVAAITGRGTTTYYADSVKGRFTISRDNAKNTVYLKMNSLKPEDTAVYYCAATYYASNPQFTTNYGYWGQGTQVTVSS | high polyreactivity |
| QVQLVESGGGIVQAGGSLRLSCAASGRIFVRYAKGWYRQAPGKERELVAAITKSGGSTYYADSEKGRFTISRDTAKNTVYLQMNCLQPDDTAVYYCNADRFYIDYTNTYDSIRDYWGQGTLVTVSS | low polyreactivity |
| QVQLVESGGGIVQAGGSLRLSCAASGRIYRYNAMGWYRQAPGKERELVASINQRGGSTYYADSVKGRFTISRDNAKNTVYLQMNSLKPEDTAVYYCAQSFNSGYYYWGQGTQVTVSS | high polyreactivity |
| QVQLVESGGGIVQAGGSLRLSCAASGRNFDVYAMGWYRQAAGKERELVATISSSGVSTSYADSVKGRFTISRDNAKNTVYLQMNSLKPEDSAVYYCARKFLWKGFDYWGQGTQVTVSS | low polyreactivity |
| QVQLVESGGGIVQAGGSLRLSCAASGRNSNRYAMGWYRQAPGKEREFVAAISKSGTSTYYADSVKGRFTISRDNAKNTVYLQMNSLKPEDTAVYYGAAKTGVGLRVNSGIGFYYWGQGTQVTVSS | high polyreactivity |
| QVQLVESGGGIVQAGGSLRLSCAASGRSFPNNAMGWYRPAPGKERELLAAISSGSSTDYADSVKGRFTISRDNAKNTVSLQMNSLKPEATAVYYCNAGDYTYPGSPWPGYAYDYWGLGTQVTVSS | low polyreactivity |
| QVQLVESGGGIVQAGGSLRLSCAASGRSFYRYARGWDRQAPGKERELVASITRSGITHYADSVKGRFTISRDNAKNPVYLQMISLKPEDTAVYYCNGRRGSPAPYDYWGQGTQVTVSS | high polyreactivity |
| QVQLVESGGGIVQAGGSLRLSCAASGRTFAGYAMGWYRQAPGKERELVAGISVDDSTTYYADSVKGRFTISRDNANNTVYLQMISLKPEDTAVYYCNADYIDTFRGFDYWGQGTLVTVSS | low polyreactivity |
| QVQLVESGGGIVQAGGSLRLSCAASGRTFFYYAMGWYRQAPGKERELVAAITTDGGTTYYADSVKGRFTISRDNAKNTVSLQMNSLKPEDTAGYYCAADASYQYYPYDYWGQGTQVTVSS | low polyreactivity |
| QVQLVESGGGIVQAGGSLRLSCAASGRTFGYYAMRWYRQAPGKERELVAAIYWSGGSTRYADSVKGRFTISRDNAKNTVYLQMNSLNPDDTAVYYCAADSWYSFAGVYRVYGEDYWGQGTEVTVSS | low polyreactivity |
| QVQLVESGGGIVQAGGSLRLSCAASGRTFKSYAMGWYRQAPGKERELVAAISRSGDRTYYADSVKGRFTISRDNAKNTVYLQMNSLKREDTAVYYCNARAVTGDRSDDYWGQGTHVTVSS | high polyreactivity |
| QVQLVESGGGIVQAGGSLRLSCAASGRTFKWNAMGWYRQAPGKEREFVATISYSGGSTYYADSVKGRFTISRDIAKNSVYLQMKSLKPEDSAVYYCAAGSPYRFWHRFDYWGQGTQVTVSS | high polyreactivity |
| QVQLVESGGGIVQAGGSLRLSCAASGRTFSPYAMGWYRQAPGKERELVAGITWSGGSTYYSDSVKGRFTISRDYAKNPVYFQMNFLKPEDTAVYYCNAVGTYAYYCSFAYDYWGQGTQVNVSS | high polyreactivity |
| QVQLVESGGGIVQAGGSLRLSCAASGRTFSWNTMGWYRQAPGKERELVAAITRVGTTYYADSVKGRFTISRDNAKNTVYLQMNSLKPEDTAVYYCAVKGPRWAYPGVDYWGQGTQVTVSS | high polyreactivity |
| QVQLVESGGGIVQAGGSLRLSCAASGRTFYPNGMGWYRQERGKERQLVAAITSGGRTNYADSVKGRFTISRDNAKNTVYLQMHSRKPEDTAVYYSNAVKRRSTSSGMDYWGQGTQVTVSS | high polyreactivity |
| QVQLVESGGGIVQAGGSLRLSCAASGRTSWYYAMGWYRQAPGKERELVAAITASGGSTYADSVKGRFTISRDNAKTSVYLQMNRLKPEDSAVYYCAAERPYSRVGYYYWGQGTQVTVSS | high polyreactivity |
